# Where no end group is shown, it is not given here.
# T1: human bombesin receptor subtype-3 (human, UniProt P32247 1-399)
# T1 construct: bombesin receptor subtype-3 of human (Homo sapiens); also called hBRS3; human BRS3; source: HEK293, transiently transfected, on cells
# T1 sequence (looked up): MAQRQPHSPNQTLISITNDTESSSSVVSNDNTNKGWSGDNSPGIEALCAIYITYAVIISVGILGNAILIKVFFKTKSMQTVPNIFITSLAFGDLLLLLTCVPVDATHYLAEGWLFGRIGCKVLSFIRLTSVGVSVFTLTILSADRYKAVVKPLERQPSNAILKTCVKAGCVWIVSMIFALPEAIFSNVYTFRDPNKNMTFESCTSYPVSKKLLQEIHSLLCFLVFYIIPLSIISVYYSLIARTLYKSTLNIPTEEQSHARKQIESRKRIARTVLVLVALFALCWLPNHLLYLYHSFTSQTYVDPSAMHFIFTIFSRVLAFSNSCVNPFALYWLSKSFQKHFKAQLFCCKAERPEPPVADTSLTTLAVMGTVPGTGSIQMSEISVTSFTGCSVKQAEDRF
# T2: mouse bombesin receptor subtype-3 (mouse, UniProt O54798 1-399)
# T2 construct: bombesin receptor subtype-3 of mouse (Mus musculus); also called mBRS3; mouse BRS3; source: HEK293, transiently transfected, on cells
# T2 sequence (looked up): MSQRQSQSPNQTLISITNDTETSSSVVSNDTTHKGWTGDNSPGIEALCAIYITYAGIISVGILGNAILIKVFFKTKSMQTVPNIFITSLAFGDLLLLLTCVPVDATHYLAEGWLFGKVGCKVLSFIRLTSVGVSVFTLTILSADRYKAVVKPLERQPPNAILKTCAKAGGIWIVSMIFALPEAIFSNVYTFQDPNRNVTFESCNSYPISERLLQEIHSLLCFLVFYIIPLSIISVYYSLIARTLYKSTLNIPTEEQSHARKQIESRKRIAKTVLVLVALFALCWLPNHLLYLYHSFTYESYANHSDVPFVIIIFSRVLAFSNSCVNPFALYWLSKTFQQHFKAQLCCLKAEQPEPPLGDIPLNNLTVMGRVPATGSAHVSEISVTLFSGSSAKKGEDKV
# What was measured:
# Settings in all cases: one partner purified
# [1] = molecular target: T1, human bombesin receptor subtype-3; assay: radioligand binding; displacement of 50 pM [125I]-Tyr42-GRP by unlabeled peptide on disaggregated transfected HEK293 cells; 1 h at 21°C; 24.5 mM HEPES pH 7.4, 98 mM NaCl; bound tracer separated by centrifugation
# [2] = molecular target: T2, mouse bombesin receptor subtype-3; assay: as above
# [3] = molecular target: T1, human bombesin receptor subtype-3; assay: radioligand binding; displacement of 50 pM [125I]-Tyr-NMB by unlabeled peptide on disaggregated transfected HEK293 cells; 1 h at 21°C; 24.5 mM HEPES pH 7.4, 98 mM NaCl; bound tracer separated by centrifugation
# [4] = molecular target: T2, mouse bombesin receptor subtype-3; assay: as above
Binder,Ki [1],Ki [2],Ki [3],Ki [4]
"APLQPGGSPALTKIYPRGSHWAVGHLM (ends and bridges not checked, gastrin-releasing peptide, 27 residues; No C-terminal amide is printed for this peptide; also called GRP; source: synthetic peptide (Anhui Guoping Pharmaceutical)) [gastrin-releasing peptide, unlabeled ligand peptide of the radioligand binding assays]",> 1000 nM,> 1000 nM,–,–
"YKIKVNPRGNLWATGHFM (ends and bridges not checked, The N-terminal Tyr may have been added for iodination (surmise); No C-terminal amide is printed for this peptide; also called NMB; source: synthetic peptide (Anhui Guoping Pharmaceutical)) [neuromedin B, unlabeled ligand peptide of the radioligand binding assays]",–,–,> 1000 nM,> 1000 nM

# — article PMC6422423, “Constitutively active BRS3 is a genuinely orphan GPCR in placental mammals” (PLoS Biology, 2019)
